Laboratory results as given in patent US20230203170A1 (DRAGONBOAT BIOPHARMACEUTICAL SHANGHAI, published 2023).
Positions count from the first letter of the chain named. Numbers in names are those of the source. Values belong to the molecule of their own block, whether it stands above or below them.

Tests used:
[1] = molecular target: full-length mouse CSF-1R (RefSeq ID NP_001032948) expressed on HEK293F cells (mouse) (UniProt P09581); test: flow cytometry on HEK293F cells transiently expressing full-length mouse CSF-1R (IRES-EGFP vector), IgG at 100 nM, Alexa Fluor 647 anti-human Fc detection [Conti.]
[2] = molecular target: T1, human CSF1R-His (Acrobiosystem, CSR-H5228) (human, UniProt P07333 20-512, limits assumed); test: SPR Biacore T200; IgG captured by anti-human Fc, CSF1R-His as analyte, 1:1 fit
T1 construct: Bought protein; The catalogue number is printed only for the SPR assay; also called human CSF-1R protein; not shown: His tag
Source text: The specific binding affinity and kinetics of antibodies against human CSF-1R protein were examined by surface plasmon resonance (SPR) analysis using a Biacore™ T200 instrument (GE, USA) according to the manufacturer’s guidelines. Anti-Human IgG (Fc) antibody (Sigma, I2136) was immobilized on CM5 chips according to the instructions of Amine Coupling kit (GE Biacore #BR-1000-50). The immobilized Anti-Human IgG (Fc) antibody was used to capture the antibodies. […] The running buffer used was 0.01 M HEPES, 0.15 M NaCl, 3 mM EDTA, 0.05% (v/v) surfactant P20, pH 7.4. Corresponding controls were conducted in each case using a blank flow cell with no protein captured for “background” subtraction. The association and dissociation curves were fitted to a 1:1 Langmuir binding model using Biacore T200 Evaluation Software (GE, USA) according to the manufacturer’s guidelines.

[3] = molecular target: full-length monkey CSF-1R (RefSeq ID XP_015307616) expressed on HEK293F cells (monkey, UniProt A0A2K5WG90 20-976); test: flow cytometry on HEK293F cells transiently expressing full-length monkey CSF-1R (IRES-EGFP vector), IgG at 100 nM, Alexa Fluor 647 anti-human Fc detection [Conti.]
Experimental: (§1) The specificities of the antibodies were also assessed against human, monkey and mouse CSF-1R that are transiently expressed on the surface of HEK293F cells (FIG. 1). Briefly, HEK293F cells were transfected with a plasmid expressing full-length human, monkey (RefSeq ID XP_015307616) or mouse (RefSeq ID NP_001032948) CSF-1R from a bicistronic IRES vector. EGFP was used to identify the transfected cells. After 40 hrs, the transfected cells were harvested and then washed once with 1% PBSA buffer (1% (w/v) BSA in 1×PBS). Cells were then incubated with various IgGs (each at 100 nM) for 1 hr at room temperature, washed once with pre-chilled 1% PBSA buffer, and incubated with Alexa Fluor® 647 conjugated mouse anti-human Fc antibodies for 30 min on ice. The cells were washed once prior to analysis by flow cytometry (Beckman® CytoFlex).

[4] = molecular target: T2, full-length mouse CSF-1R (RefSeq ID NP_001032948) expressed on HEK293F cells (mouse, UniProt P09581 20-977); test: flow cytometry on HEK293F cells transiently expressing full-length mouse CSF-1R (IRES-EGFP vector), Alexa Fluor 647 anti-human Fc detection [Conti.]
T2 construct: whole, on cells
T2 sequence (looked up): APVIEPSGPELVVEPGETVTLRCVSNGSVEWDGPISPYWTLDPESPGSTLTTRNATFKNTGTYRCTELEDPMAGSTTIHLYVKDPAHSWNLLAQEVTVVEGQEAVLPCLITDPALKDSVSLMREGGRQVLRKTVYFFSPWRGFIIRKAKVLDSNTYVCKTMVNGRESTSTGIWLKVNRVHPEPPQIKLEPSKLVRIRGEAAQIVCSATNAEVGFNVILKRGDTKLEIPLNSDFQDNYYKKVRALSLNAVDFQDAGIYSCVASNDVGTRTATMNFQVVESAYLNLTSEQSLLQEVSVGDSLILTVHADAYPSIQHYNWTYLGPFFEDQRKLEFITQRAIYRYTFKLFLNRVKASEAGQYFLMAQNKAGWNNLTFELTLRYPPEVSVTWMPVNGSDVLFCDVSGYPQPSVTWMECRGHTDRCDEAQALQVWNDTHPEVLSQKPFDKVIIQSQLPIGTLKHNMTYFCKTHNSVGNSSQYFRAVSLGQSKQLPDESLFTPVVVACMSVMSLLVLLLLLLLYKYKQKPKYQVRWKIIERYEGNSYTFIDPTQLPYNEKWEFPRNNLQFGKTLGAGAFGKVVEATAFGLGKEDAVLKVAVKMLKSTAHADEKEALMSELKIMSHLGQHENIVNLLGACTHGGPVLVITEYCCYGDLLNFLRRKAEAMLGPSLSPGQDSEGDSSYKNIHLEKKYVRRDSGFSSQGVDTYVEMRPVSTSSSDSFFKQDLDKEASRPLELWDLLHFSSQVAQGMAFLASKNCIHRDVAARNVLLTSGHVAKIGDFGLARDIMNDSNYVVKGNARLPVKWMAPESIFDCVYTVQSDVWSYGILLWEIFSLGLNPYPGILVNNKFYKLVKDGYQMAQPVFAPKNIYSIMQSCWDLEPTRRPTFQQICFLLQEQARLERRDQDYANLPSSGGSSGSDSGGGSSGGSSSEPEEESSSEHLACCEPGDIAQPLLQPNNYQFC
Experimental: as §1

[5] = molecular target: T3, full-length human CSF-1R expressed on cells (human, UniProt P07333 20-972); test: flow cytometry on HEK293F cells transiently expressing full-length human CSF-1R (IRES-EGFP vector), IgG at 100 nM, Alexa Fluor 647 anti-human Fc detection [Conti.]
T3 construct: whole, on cells
Experimental: as §1

[6] = molecular target: T2, full-length mouse CSF-1R (RefSeq ID …); test: flow cytometry on transfected HEK293F cells
Experimental: as §1

full-length monkey CSF-1R (RefSeq ID XP_015307616) expressed on HEK293F cells, sequence (A0A2K5WG90 entry or part of it limits assumed, form in doubt): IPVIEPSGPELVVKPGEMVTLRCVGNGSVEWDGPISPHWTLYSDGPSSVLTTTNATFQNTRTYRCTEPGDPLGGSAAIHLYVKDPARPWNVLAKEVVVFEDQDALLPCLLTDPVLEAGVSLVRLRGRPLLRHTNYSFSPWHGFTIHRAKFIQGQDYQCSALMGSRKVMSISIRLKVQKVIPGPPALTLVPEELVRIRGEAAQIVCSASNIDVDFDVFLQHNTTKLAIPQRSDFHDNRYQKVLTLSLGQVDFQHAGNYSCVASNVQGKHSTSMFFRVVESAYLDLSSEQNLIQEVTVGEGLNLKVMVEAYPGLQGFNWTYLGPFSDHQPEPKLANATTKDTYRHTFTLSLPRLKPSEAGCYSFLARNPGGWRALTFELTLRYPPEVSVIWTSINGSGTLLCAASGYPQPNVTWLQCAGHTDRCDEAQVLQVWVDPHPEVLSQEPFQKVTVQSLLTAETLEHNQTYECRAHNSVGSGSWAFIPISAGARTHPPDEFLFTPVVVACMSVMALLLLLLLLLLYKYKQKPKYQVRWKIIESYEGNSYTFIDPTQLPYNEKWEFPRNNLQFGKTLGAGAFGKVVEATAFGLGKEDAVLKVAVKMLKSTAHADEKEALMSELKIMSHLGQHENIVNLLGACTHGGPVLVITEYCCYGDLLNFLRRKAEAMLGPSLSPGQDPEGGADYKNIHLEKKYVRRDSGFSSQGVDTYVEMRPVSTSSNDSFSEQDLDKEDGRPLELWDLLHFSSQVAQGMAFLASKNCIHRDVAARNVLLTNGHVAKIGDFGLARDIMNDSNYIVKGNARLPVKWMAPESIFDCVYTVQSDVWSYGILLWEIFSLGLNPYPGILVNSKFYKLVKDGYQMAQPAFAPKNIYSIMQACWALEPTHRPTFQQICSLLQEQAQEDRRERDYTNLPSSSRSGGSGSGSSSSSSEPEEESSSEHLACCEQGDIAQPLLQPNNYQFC

percent of cells in the upper right quadrant (APC Ab binding positive, FITC Ag display positive) [1]: 0.17%
Molecule: Isotype Ctrl (antibody)

Kd [2]: 8.35 nM
percent of cells in the upper right quadrant (APC Ab binding positive, FITC Ag display positive) [3]: 32.3%
binding result [4]: no binding (tested: 100 nM)
percent of cells in the upper right quadrant (APC Ab binding positive, FITC Ag display positive) [5]: 41.2%
B1: TY21430 (antibody, human IgG4, V domains shown)
VH: EVQLVESGGGLVQPGGSLRLSCAASGYSITSGHHWAWIRQAPGKGLEWVSSISGSGSTTYYADSVKGRFTISRDNSKNTLYLQLNSLRAEDTAVYYCARGSYYGAGSFDYWGQGTLVTVSS
VL: DIQLTQSPSSLSASVGDRVTITCRASQGITSALAWYQQKPGKAPKLLIYDASSLESGVPSRFSGSGSGTDFTLTISSLQPEDFATYYCQQYYPWPWTFGQGTKVEIK
notes: Human IgG4 isotype with S241P mutation

Kd [2]: 13.8 nM
percent of cells in the upper right quadrant (APC Ab binding positive, FITC Ag display positive) [3]: 28.8%
binding result [4]: no binding (tested: 100 nM)
percent of cells in the upper right quadrant (APC Ab binding positive, FITC Ag display positive) [5]: 41.7%
B2: TY21432 (antibody, human IgG4, V domains shown)
VH: EVQLVESGGGLVQPGGSLRLSCAASGYTFSSYAIHWVRQAPGKGLEWVSVISGAGSSTYYADSVKGRFTISRDNSKNTLYLQLNSLRAEDTAVYYCARRTPAGNYFDYWGQGTLVTVSS
VL: B1 VL with T30S, S31R, A32W, Q89E, Y92L, P93E, W94V, W96P
notes: as for B1

Kd [2]: 20.9 nM
binding result [6]: no binding (tested: 100 nM)
B3: TY21431 (antibody, human IgG4, V domains shown)
VH: EVQLVESGGGLVQPGGSLRLSCAASGFTFTDYAIHWVRQAPGKGLEWVSVISGYGSSTYYADSVKGRFTISRDNSKNTLYLQLNSLRAEDTAVYYCARGSYSSVYFDVWGQGTLVTVSS
VL: DIQLTQSPSSLSASVGDRVTITCKASQDVRTAVAWYQQKPGKAPKLLIYAASSLQSGVPSRFSGSGSGTDFTLTISSLQPEDFATYYCQQSYPIPFTFGQGTKVEIK
notes: as for B1
